Substitutions are numbered along the chain they refer to.
What was measured:
Assay in all cases: ELISA-type titration, A450 against antibody concentration; protocol not described in the text
Baboon EL-C2 tag = molecular target: T1, Baboon EL-C2 tag (baboon, UniProt Q9Y5X9 21-500 (human entry), limits assumed)
T1 construct: used as heparin extract of transfected HEK293F cells; also called baboon EL heparin extract
T1 chain: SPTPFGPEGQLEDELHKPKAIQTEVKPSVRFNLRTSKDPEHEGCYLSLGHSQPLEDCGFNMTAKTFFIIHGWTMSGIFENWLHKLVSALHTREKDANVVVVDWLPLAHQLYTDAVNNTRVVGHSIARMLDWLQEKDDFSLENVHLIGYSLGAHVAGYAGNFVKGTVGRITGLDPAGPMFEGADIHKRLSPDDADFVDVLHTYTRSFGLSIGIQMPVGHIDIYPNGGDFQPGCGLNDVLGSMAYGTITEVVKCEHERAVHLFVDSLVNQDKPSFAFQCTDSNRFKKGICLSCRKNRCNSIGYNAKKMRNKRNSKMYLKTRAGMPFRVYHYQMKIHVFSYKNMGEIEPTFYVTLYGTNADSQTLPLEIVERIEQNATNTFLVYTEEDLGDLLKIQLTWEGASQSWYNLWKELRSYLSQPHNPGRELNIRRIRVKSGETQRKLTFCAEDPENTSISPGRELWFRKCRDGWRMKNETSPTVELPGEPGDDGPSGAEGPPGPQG

[1] = molecular target: T2, cynomolgus monkey EL-C2 tag (cynomolgus monkey, UniProt Q9Y5X9 21-500 (human entry), limits assumed)
T2 construct: used as heparin extract of transfected HEK293F cells; also called cynomolgus EL
T2 chain: T1 chain with E12A, E141G

mouse EL-C2 tag = molecular target: T3, mouse EL-C2 tag (mouse, UniProt Q9WVG5 21-500)
T3 construct: used as heparin extract of transfected HEK293F cells
T3 sequence: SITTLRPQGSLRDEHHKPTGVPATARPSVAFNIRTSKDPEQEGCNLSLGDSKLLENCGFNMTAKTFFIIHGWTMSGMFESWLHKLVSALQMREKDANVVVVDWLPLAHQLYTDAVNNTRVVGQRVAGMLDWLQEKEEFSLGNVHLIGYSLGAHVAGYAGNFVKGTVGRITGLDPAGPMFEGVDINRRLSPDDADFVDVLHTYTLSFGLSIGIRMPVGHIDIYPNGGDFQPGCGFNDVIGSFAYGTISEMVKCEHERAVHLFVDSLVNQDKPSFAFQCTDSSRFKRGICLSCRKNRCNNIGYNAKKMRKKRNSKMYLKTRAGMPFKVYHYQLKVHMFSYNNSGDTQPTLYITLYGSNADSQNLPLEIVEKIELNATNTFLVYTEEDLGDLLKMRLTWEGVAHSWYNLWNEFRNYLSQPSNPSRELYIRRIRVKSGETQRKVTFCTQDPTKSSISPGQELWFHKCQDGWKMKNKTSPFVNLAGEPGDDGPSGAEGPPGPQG

[2] = molecular target: T4, human EL[331-459]-mouse EL-C2 tag (human/mouse chimera, UniProt Q9WVG5 21-500 (mouse entry))
T4 construct: used as heparin extract of transfected HEK293F cells; also called human-mouse chimera EL; Human-Mouse chimeric EL
T4 chain: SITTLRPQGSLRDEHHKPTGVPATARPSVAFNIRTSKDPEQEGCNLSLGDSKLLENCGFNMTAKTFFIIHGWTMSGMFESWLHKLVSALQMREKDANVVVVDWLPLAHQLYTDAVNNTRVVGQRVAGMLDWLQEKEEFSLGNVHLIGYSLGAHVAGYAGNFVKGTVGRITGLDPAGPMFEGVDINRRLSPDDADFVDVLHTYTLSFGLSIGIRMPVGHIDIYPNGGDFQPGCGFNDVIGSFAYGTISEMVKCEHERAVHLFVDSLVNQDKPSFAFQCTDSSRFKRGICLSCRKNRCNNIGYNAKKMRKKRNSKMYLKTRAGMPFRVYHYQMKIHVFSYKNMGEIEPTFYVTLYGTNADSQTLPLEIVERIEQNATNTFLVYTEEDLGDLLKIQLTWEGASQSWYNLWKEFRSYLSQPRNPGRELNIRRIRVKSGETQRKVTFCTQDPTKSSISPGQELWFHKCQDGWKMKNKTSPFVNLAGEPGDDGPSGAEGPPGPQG

rabbit EL-C2 tag = molecular target: T5, rabbit EL-C2 tag (rabbit)
T5 construct: used as cell lysate or heparin extract; also called rabbit EL lysate; rabbit EL enzyme solution
T5 chain: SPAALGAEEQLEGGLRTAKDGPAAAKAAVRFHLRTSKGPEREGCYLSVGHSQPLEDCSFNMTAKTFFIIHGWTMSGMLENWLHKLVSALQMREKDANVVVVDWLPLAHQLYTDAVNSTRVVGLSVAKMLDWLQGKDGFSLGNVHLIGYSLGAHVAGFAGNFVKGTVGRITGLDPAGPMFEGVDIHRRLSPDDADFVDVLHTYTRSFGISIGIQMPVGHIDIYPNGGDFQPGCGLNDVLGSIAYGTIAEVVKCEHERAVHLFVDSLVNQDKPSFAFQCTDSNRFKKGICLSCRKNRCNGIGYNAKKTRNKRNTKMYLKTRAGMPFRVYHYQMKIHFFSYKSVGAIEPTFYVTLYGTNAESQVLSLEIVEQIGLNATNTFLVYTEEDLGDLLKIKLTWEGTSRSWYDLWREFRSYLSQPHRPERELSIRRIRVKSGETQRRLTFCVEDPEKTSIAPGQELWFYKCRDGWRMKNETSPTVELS

B1: 47B2 antibody (antibody, IgG2a, V domains shown)
VH: QVALKESGPGILQPSQTLSLTCSFSGFSLSTSGMGVGWIRQPSGKGLEWLAHIWWHGNKYYSTGLKSRLTISKDTSNNQVFLKIASVDTADTATYYCARISAGYPLDYWGQGTSVTVSS
VL: DIQMTQSPSSLSASLGGKVTITCKASQDINKYIVWYQHKPGKGPRLLIHYTSTLQPGFPSRFSGSGSGRDYSLSITNLEPEDIATYYCLQYDNLLWTFGGGTKLEIK
B1 was tested, and the “EC50 (read off the curve)” value (Baboon EL-C2 tag) was roughly 10 ng/mL, the “EC50 (read off the curve)” value [1] was roughly 6 ng/mL and the binding result (mouse EL-C2 tag) was “binds”. The “EC50 (read off the curve)” value [2] was roughly 10 ng/mL and the “EC50 (read off the curve)” value (rabbit EL-C2 tag) was roughly 7 ng/mL.
